# According to US12679878B2, “CRF2 receptor agonists and their use in therapy” (SANOFI, priority 2020, dated 2026):
# Starred links: 1 amine or outer side, 2 acyl side, 3 side chain; linkers in the order of their positions; H or OH if unused. Non-standard residues stand in square brackets, D forms with d. Groups on a side chain read outwards from the residue. No end group written: not given here. *: point of attachment. C20 diacid = O=C(O)CCCCCCCCCCCCCCCCCCC(=O)*; C18 diacid = O=C(O)CCCCCCCCCCCCCCCCC(=O)*; γGlu = O=C(O)[C@H](CCC(=O)[*:2])N[*:1]; AEEA = NCCOCCOCC(=O)O; Aib = CC(C)(N)C(=O)O
# T1: endogenous human CRF2 (NCI-H82 cells) (human, UniProt Q13324 20-411)
# T1 sequence (looked up): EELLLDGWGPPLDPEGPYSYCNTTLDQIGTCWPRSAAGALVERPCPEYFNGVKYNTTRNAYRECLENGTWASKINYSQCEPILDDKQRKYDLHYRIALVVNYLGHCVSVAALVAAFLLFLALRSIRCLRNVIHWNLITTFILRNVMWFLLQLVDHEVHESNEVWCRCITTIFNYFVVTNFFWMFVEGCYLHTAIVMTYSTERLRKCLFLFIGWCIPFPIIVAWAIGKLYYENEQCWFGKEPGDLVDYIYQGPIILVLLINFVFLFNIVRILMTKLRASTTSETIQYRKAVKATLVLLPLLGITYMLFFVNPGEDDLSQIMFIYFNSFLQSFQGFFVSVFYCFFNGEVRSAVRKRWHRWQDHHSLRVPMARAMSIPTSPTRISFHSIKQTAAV
# T2: anti-target CRF1R receptor (UniProt P34998 24-415, limits assumed)
# T2 sequence (looked up): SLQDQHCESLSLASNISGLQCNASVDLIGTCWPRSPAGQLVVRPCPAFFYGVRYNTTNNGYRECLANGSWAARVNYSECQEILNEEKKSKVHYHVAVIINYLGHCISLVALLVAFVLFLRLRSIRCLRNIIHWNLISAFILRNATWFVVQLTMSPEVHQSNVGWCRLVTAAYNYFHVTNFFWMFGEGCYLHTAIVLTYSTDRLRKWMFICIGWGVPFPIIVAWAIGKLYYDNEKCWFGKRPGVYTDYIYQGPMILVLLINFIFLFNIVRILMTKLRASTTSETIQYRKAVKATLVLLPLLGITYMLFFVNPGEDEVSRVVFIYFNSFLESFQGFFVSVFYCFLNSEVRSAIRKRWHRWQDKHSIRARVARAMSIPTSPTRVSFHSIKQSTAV
# Legend:
# Assay in all cases: cell-based or functional assay
# [1] = molecular target: T1, endogenous human CRF2 (NCI-H82 cells)
# [2] = molecular target: T2, anti-target CRF1R receptor
# rat CRF2R α receptor = rat CRF2R α receptor (rat, UniProt P47866 20-411)
Binder,"EC50 [nM] (cAMP, NCI-H82 cells) [1]","EC50[nM] 0% HSA (cAMP, CRF1R-overexpression CHO cells) [2] [nM]","Emax (%) (cAMP, CRF1R-overexpression CHO cells) [2]","EC50 [nM], 0% HSA (cAMP, A7R5 cells) (rat CRF2R α receptor) [nM]"
IVLSLDVPIKLK([AEEA-AEEA-γGlu-C20 diacid])QILLEQEKQK[Aib]QREQAETNKQILAQV-NH2 (N-terminus assumed; SMILES CC[C@H](C)[C@H](N)C(=O)N[C@H](C(=O)N[C@@H](CC(C)C)C(=O)N[C@@H](CO)C(=O)N[C@@H](CC(C)C)C(=O)N[C@@H](CC(=O)O)C(=O)N[C@H](C(=O)N1CCC[C@H]1C(=O)N[C@H](C(=O)N[C@@H](CCCCN)C(=O)N[C@@H](CC(C)C)C(=O)N[C@@H](CCCCNC(=O)COCCOCCNC(=O)COCCOCCNC(=O)CC[C@H](NC(=O)CCCCCCCCCCCCCCCCCCC(=O)O)C(=O)O)C(=O)N[C@@H](CCC(N)=O)C(=O)N[C@H](C(=O)N[C@@H](CC(C)C)C(=O)N[C@@H](CC(C)C)C(=O)N[C@@H](CCC(=O)O)C(=O)N[C@@H](CCC(N)=O)C(=O)N[C@@H](CCC(=O)O)C(=O)N[C@@H](CCCCN)C(=O)N[C@@H](CCC(N)=O)C(=O)N[C@@H](CCCCN)C(=O)NC(C)(C)C(=O)N[C@@H](CCC(N)=O)C(=O)N[C@@H](CCCNC(=N)N)C(=O)N[C@@H](CCC(=O)O)C(=O)N[C@@H](CCC(N)=O)C(=O)N[C@@H](C)C(=O)N[C@@H](CCC(=O)O)C(=O)N[C@H](C(=O)N[C@@H](CC(N)=O)C(=O)N[C@@H](CCCCN)C(=O)N[C@@H](CCC(N)=O)C(=O)N[C@H](C(=O)N[C@@H](CC(C)C)C(=O)N[C@@H](C)C(=O)N[C@@H](CCC(N)=O)C(=O)N[C@H](C(N)=O)C(C)C)[C@@H](C)CC)[C@@H](C)O)[C@@H](C)CC)[C@@H](C)CC)C(C)C)C(C)C) [peptide of SEQ ID NO: 81],110,> 1000,23.3,0.94
IVLSLD[dV]PIKLK([AEEA-AEEA-γGlu-C18 diacid])QILLKQERQK[Aib]QRQQAEKNKQILAQV-NH2 (N-terminus assumed; SMILES CC[C@H](C)[C@H](N)C(=O)N[C@H](C(=O)N[C@@H](CC(C)C)C(=O)N[C@@H](CO)C(=O)N[C@@H](CC(C)C)C(=O)N[C@@H](CC(=O)O)C(=O)N[C@@H](C(=O)N1CCC[C@H]1C(=O)N[C@H](C(=O)N[C@@H](CCCCN)C(=O)N[C@@H](CC(C)C)C(=O)N[C@@H](CCCCNC(=O)COCCOCCNC(=O)COCCOCCNC(=O)CC[C@H](NC(=O)CCCCCCCCCCCCCCCCC(=O)O)C(=O)O)C(=O)N[C@@H](CCC(N)=O)C(=O)N[C@H](C(=O)N[C@@H](CC(C)C)C(=O)N[C@@H](CC(C)C)C(=O)N[C@@H](CCCCN)C(=O)N[C@@H](CCC(N)=O)C(=O)N[C@@H](CCC(=O)O)C(=O)N[C@@H](CCCNC(=N)N)C(=O)N[C@@H](CCC(N)=O)C(=O)N[C@@H](CCCCN)C(=O)NC(C)(C)C(=O)N[C@@H](CCC(N)=O)C(=O)N[C@@H](CCCNC(=N)N)C(=O)N[C@@H](CCC(N)=O)C(=O)N[C@@H](CCC(N)=O)C(=O)N[C@@H](C)C(=O)N[C@@H](CCC(=O)O)C(=O)N[C@@H](CCCCN)C(=O)N[C@@H](CC(N)=O)C(=O)N[C@@H](CCCCN)C(=O)N[C@@H](CCC(N)=O)C(=O)N[C@H](C(=O)N[C@@H](CC(C)C)C(=O)N[C@@H](C)C(=O)N[C@@H](CCC(N)=O)C(=O)N[C@H](C(N)=O)C(C)C)[C@@H](C)CC)[C@@H](C)CC)[C@@H](C)CC)C(C)C)C(C)C) [peptide of SEQ ID NO: 135],110,> 1000,28.4,0.13
IVLSLD[dV]PIKLK([AEEA-AEEA-γGlu-C18 diacid])QILLKQERQK[Aib]QREQAEKNKQILAQV-NH2 (N-terminus assumed; SMILES CC[C@H](C)[C@H](N)C(=O)N[C@H](C(=O)N[C@@H](CC(C)C)C(=O)N[C@@H](CO)C(=O)N[C@@H](CC(C)C)C(=O)N[C@@H](CC(=O)O)C(=O)N[C@@H](C(=O)N1CCC[C@H]1C(=O)N[C@H](C(=O)N[C@@H](CCCCN)C(=O)N[C@@H](CC(C)C)C(=O)N[C@@H](CCCCNC(=O)COCCOCCNC(=O)COCCOCCNC(=O)CC[C@H](NC(=O)CCCCCCCCCCCCCCCCC(=O)O)C(=O)O)C(=O)N[C@@H](CCC(N)=O)C(=O)N[C@H](C(=O)N[C@@H](CC(C)C)C(=O)N[C@@H](CC(C)C)C(=O)N[C@@H](CCCCN)C(=O)N[C@@H](CCC(N)=O)C(=O)N[C@@H](CCC(=O)O)C(=O)N[C@@H](CCCNC(=N)N)C(=O)N[C@@H](CCC(N)=O)C(=O)N[C@@H](CCCCN)C(=O)NC(C)(C)C(=O)N[C@@H](CCC(N)=O)C(=O)N[C@@H](CCCNC(=N)N)C(=O)N[C@@H](CCC(=O)O)C(=O)N[C@@H](CCC(N)=O)C(=O)N[C@@H](C)C(=O)N[C@@H](CCC(=O)O)C(=O)N[C@@H](CCCCN)C(=O)N[C@@H](CC(N)=O)C(=O)N[C@@H](CCCCN)C(=O)N[C@@H](CCC(N)=O)C(=O)N[C@H](C(=O)N[C@@H](CC(C)C)C(=O)N[C@@H](C)C(=O)N[C@@H](CCC(N)=O)C(=O)N[C@H](C(N)=O)C(C)C)[C@@H](C)CC)[C@@H](C)CC)[C@@H](C)CC)C(C)C)C(C)C) [peptide of SEQ ID NO: 130],4.3,> 1000,20.3,0.13
IVLSLDVPIKLK([AEEA-AEEA-γGlu-C18 diacid])KILLKQERQKK[Aib]REQAETNKQILERV-NH2 (N-terminus assumed; SMILES CC[C@H](C)[C@H](N)C(=O)N[C@H](C(=O)N[C@@H](CC(C)C)C(=O)N[C@@H](CO)C(=O)N[C@@H](CC(C)C)C(=O)N[C@@H](CC(=O)O)C(=O)N[C@H](C(=O)N1CCC[C@H]1C(=O)N[C@H](C(=O)N[C@@H](CCCCN)C(=O)N[C@@H](CC(C)C)C(=O)N[C@@H](CCCCNC(=O)COCCOCCNC(=O)COCCOCCNC(=O)CC[C@H](NC(=O)CCCCCCCCCCCCCCCCC(=O)O)C(=O)O)C(=O)N[C@@H](CCCCN)C(=O)N[C@H](C(=O)N[C@@H](CC(C)C)C(=O)N[C@@H](CC(C)C)C(=O)N[C@@H](CCCCN)C(=O)N[C@@H](CCC(N)=O)C(=O)N[C@@H](CCC(=O)O)C(=O)N[C@@H](CCCNC(=N)N)C(=O)N[C@@H](CCC(N)=O)C(=O)N[C@@H](CCCCN)C(=O)N[C@@H](CCCCN)C(=O)NC(C)(C)C(=O)N[C@@H](CCCNC(=N)N)C(=O)N[C@@H](CCC(=O)O)C(=O)N[C@@H](CCC(N)=O)C(=O)N[C@@H](C)C(=O)N[C@@H](CCC(=O)O)C(=O)N[C@H](C(=O)N[C@@H](CC(N)=O)C(=O)N[C@@H](CCCCN)C(=O)N[C@@H](CCC(N)=O)C(=O)N[C@H](C(=O)N[C@@H](CC(C)C)C(=O)N[C@@H](CCC(=O)O)C(=O)N[C@@H](CCCNC(=N)N)C(=O)N[C@H](C(N)=O)C(C)C)[C@@H](C)CC)[C@@H](C)O)[C@@H](C)CC)[C@@H](C)CC)C(C)C)C(C)C) [peptide of SEQ ID NO: 101],4.1,> 1000,-0.34,1.02
IVLSLD[dV]PIKLK([AEEA-AEEA-γGlu-C18 diacid])QILLKQERQKKQREQAEKNKQILEQV-NH2 (N-terminus assumed; SMILES CC[C@H](C)[C@H](N)C(=O)N[C@H](C(=O)N[C@@H](CC(C)C)C(=O)N[C@@H](CO)C(=O)N[C@@H](CC(C)C)C(=O)N[C@@H](CC(=O)O)C(=O)N[C@@H](C(=O)N1CCC[C@H]1C(=O)N[C@H](C(=O)N[C@@H](CCCCN)C(=O)N[C@@H](CC(C)C)C(=O)N[C@@H](CCCCNC(=O)COCCOCCNC(=O)COCCOCCNC(=O)CC[C@H](NC(=O)CCCCCCCCCCCCCCCCC(=O)O)C(=O)O)C(=O)N[C@@H](CCC(N)=O)C(=O)N[C@H](C(=O)N[C@@H](CC(C)C)C(=O)N[C@@H](CC(C)C)C(=O)N[C@@H](CCCCN)C(=O)N[C@@H](CCC(N)=O)C(=O)N[C@@H](CCC(=O)O)C(=O)N[C@@H](CCCNC(=N)N)C(=O)N[C@@H](CCC(N)=O)C(=O)N[C@@H](CCCCN)C(=O)N[C@@H](CCCCN)C(=O)N[C@@H](CCC(N)=O)C(=O)N[C@@H](CCCNC(=N)N)C(=O)N[C@@H](CCC(=O)O)C(=O)N[C@@H](CCC(N)=O)C(=O)N[C@@H](C)C(=O)N[C@@H](CCC(=O)O)C(=O)N[C@@H](CCCCN)C(=O)N[C@@H](CC(N)=O)C(=O)N[C@@H](CCCCN)C(=O)N[C@@H](CCC(N)=O)C(=O)N[C@H](C(=O)N[C@@H](CC(C)C)C(=O)N[C@@H](CCC(=O)O)C(=O)N[C@@H](CCC(N)=O)C(=O)N[C@H](C(N)=O)C(C)C)[C@@H](C)CC)[C@@H](C)CC)[C@@H](C)CC)C(C)C)C(C)C) [peptide of SEQ ID NO: 137],120,> 1000,22.5,0.14
